Laboratory results: paper PMC7327923

Columns and labels:
[1] = molecular target: Dps protein from Thermoleptolyngbya sp. O-77 (TlDps1) (Thermoleptolyngbya sp. O-77); assay: SDS/PAGE; 5-20% gel; sample buffer with 2% SDS and 14.4 mM 2-mercaptoethanol; incubated 10 min at 298, 323 or 348 K before loading
[2] = molecular target: Dps protein from Thermoleptolyngbya sp. O-77 (TlDps1) (Thermoleptolyngbya sp. O-77); assay: crystal structure; hanging drop, 293 K, TlDps1 4.0 mg/mL in 10 mM Tris/HCl pH 8.0 with 0.15 M cesium chloride and 18% PEG 3350; 2.9 Å; six subunits in the asymmetric unit
[3] = molecular target: Dps protein from Thermoleptolyngbya sp. O-77 (TlDps1) (Thermoleptolyngbya sp. O-77); assay: native gel or EMSA; native PAGE, 5-20% gel; TlDps1 in 10 mM Tris/HCl pH 8.0, also after DNase I treatment
[4] = molecular target: Dps protein from Thermoleptolyngbya sp. O-77 (TlDps1) (Thermoleptolyngbya sp. O-77); assay: SEC-RALS; TlDps1 as isolated, 206 µg/mL; Superdex 200 Increase, 303 K, 10 mM Tris/HCl pH 8.0, 0.5 mL/min

stoichiometry N [1]: 12
stoichiometry N [2]: 12
stoichiometry N [3]: 12
stoichiometry N [4]: 12
Substance: Dps protein from Thermoleptolyngbya sp. O-77 (TlDps1) (natural protein)
